Legend:
[1] = molecular target: human IgG monomer (Sandoglobulin, Novartis) (human); assay: BIAcore equilibrium binding, receptor injected over immobilised human IgG monomer (Sandoglobulin); single-binding site
[2] = molecular target: heat-aggregated IgG (HAGG); assay: BIAcore equilibrium binding, receptor injected over immobilised HAGG; single-binding site
[3] = molecular target: human IgG monomer (Sandoglobulin, Novartis) (human); assay: BIAcore equilibrium binding over immobilised IgG (Sandoglobulin), rounded value of the discussion
[4] = molecular target: dimer-IgG (Wright et al., 1980); assay: flow cytometry: inhibition of dimer-IgG binding to human neutrophils
[5] = molecular target: heat-aggregated IgG (HAGG); assay: BIAcore equilibrium binding over immobilised HAGG; KD1 against the monomer's KD
[6] = molecular target: human IgG monomer (Sandoglobulin, Novartis) (human); assay: BIAcore equilibrium binding over immobilised human IgG monomer; two-binding site model, KD1
[7] = molecular target: dimer-IgG (Wright et al., 1980); assay: flow cytometry: inhibition of dimer-IgG binding to neutrophils from two different individuals
[8] = molecular target: heat-aggregated IgG (HAGG); assay: BIAcore equilibrium binding over immobilised HAGG; two-binding site model, KD2
[9] = molecular target: dimer-IgG (Wright et al., 1980); assay: flow cytometry, inhibition of dimer-IgG binding to human neutrophils (volunteer V1, Fcγ receptors m8) by purified rsFcγRIIa dimer
[10] = molecular target: heat-aggregated IgG (HAGG); assay: flow cytometry: inhibition of HAGG binding to human FcγRIIb on IIA1.6 cells
[11] = molecular target: human IgG monomer (Sandoglobulin, Novartis) (human); assay: BIAcore equilibrium binding over immobilised human IgG monomer; two-binding site model, KD2
[12] = molecular target: heat-aggregated IgG (HAGG); assay: BIAcore equilibrium binding over immobilised HAGG; two-binding site model, KD1
[13] = molecular target: human IgG monomer (Sandoglobulin, Novartis) (human); assay: BIAcore equilibrium binding over immobilised IgG (Sandoglobulin)
[14] = molecular target: heat-aggregated IgG (HAGG); assay: cell-based or functional assay
[15] = molecular target: ovalbumin-anti-ovalbumin immune complexes (OVA ICs); assay: cell-based or functional assay

Kd [1] [nM]	Kd [2] [nM]	Kd [3] [nM]	IC50 [4] [µg/mL]	fold lesser KD than monomeric rsFcγRIIa [5] [fold]	Kd [6] [nM]	IC50 [7] [µg/mL]	Kd [8] [nM]	IC50 [9] [µg/mL]	IC50 [10] [µg/mL]	fold more potent than the monomer protein [10] [fold]	Kd [11] [nM]	Kd [12] [nM]	fold more active than rsFcγRIIa monomer [4] [fold]	fold greater avidity than the monomeric receptor [13] [fold]	IC50, HAGG-induced CD62P upregulation on human platelets [14] [µg/mL]	fold potency against rsFcγRIIa monomer, HAGG-induced platelet activation [14] [fold]	IC50, TNF-α release from MC/9 cells induced by OVA ICs [15] [µg/mL]	Substance
1700	1050	1000	10.5	–	–	–	–	–	–	–	–	–	–	–	–	–	–	recombinant soluble FcγRIIa monomer (rsFcγRIIa monomer), expressed from pBAR426 in HEK 293E cells (from UniProt P12318 34-217) (receptor)
–	–	3	1.1	300	3.2	0.9 to 1.1	99	0.9	0.0039	> 500	100	2.73	10	300	3.9	5	–	recombinant soluble FcγRIIa dimer (rsFcγRIIa dimer), head to tail homodimer construct of FIG. 1 (from UniProt P12318 34-215) (receptor)
–	–	–	–	–	–	–	–	–	2.08	–	–	–	–	–	20.9	–	17.7	rsFcγRIIa monomer (R&D Systems, Cat #1330-CD/CF) (from UniProt P12318 36-218) (receptor)

— patent US20130089893A1
